Literature values in US20260183395A1, “COMBINED THERAPIES USING IMMUNOMODULATING DRUGS” (ONK THERAPEUTICS LIMITED, priority 2022, published 2026).
pKd: −log10 of the molar value.

Legend:
[1] = biological target: DR4 (Homo sapiens, UniProt O00220); conditions: surface plasmon resonance; WO 2009/077857
[2] = biological target: T1, decoy receptor DcR1 (Homo sapiens, UniProt O14798); conditions: surface plasmon resonance; WO 2009/077857
T1 sequence (O14798 26-236): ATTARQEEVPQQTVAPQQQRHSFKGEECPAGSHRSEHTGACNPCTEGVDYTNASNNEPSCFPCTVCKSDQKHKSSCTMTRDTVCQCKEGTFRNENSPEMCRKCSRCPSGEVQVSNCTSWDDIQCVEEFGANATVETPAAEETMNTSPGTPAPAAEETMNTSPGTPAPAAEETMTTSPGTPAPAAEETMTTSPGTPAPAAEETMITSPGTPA

pKd [1]: < 8.70 | pKd [2]: < 7.70
Substance: Wildtype TRAIL: Wildtype TRAIL ligand, baseline for the affinity of TRAIL variants/mutants
